{"source": "patent US20260241035A1", "about": "“FUNCTIONAL NUCLEIC ACID MOLECULE AND METHOD” (THE UNIVERSITY COURT OF THE UNIVERSITY OF EDINBURGH, priority 2022, published 2026)", "molecules": {"B1": {"name": "SSE-7: synthetic super-enhancer ID4310_ID4428_ID0785_ID3836, SEQ ID NO: 70 (nucleic acid)", "DNA": "TTGTCCTGCCTTTGAGAACACTGGAAGGGCACTGAAGGCTGACCAGCATGCACCTCACCCCACCTCCTCTCTGTCTCATCCTCAGCCATCTAAGCGGGAGACTCATCAGGCTTAAATTCTCATTCTTATCCAAGATTCTTCTGCTTCAAATGAGTCTAAATGGAGATCCTCCCATAAAGGGAGTTCTGTTTGGGCTTCCCTTGGAAGTCCATTGAAAGCGTTTCACATTTCAATGCTTCTTTACATTCTCCTCTAGAATGAATCTGGAAGGGCCATTTCATTCCAGCCCTATCAGATTTACTACTTCCTCCTGTAAGAATGAACTGGGCCCAGCTGGGCATTTGCATCAAAGTGCCTCACCAGAGTTCCCAGCTGCTCTGGCAGAGTGCCCAGGCTTGCCCCAGAGCCCAAACAGAATGCTCTTTGAGATGCCTCTGGTTTTCATACCCTTCCAGGGGAGCAGTTTCCTGGCTGTGTCGTCAGATACTGTGGTTTACGCTGTTCCGGAGTCTGGAGGTCTGTGTGCCTTTGATCTCTTTCCCAACTAATTTGCACAGCTGCTGTGGAGGCCCTCATGAATGACCTCTTTCTTTCCTTTCT"}}, "assay_type_in_all_cases": "cell-based, human", "key": {"[1]": {"tested_on": "GSC7 cells", "experiment": "Flow cytometry of mNGreen reporter in GSC7", "experimental": "Cells were seeded at the required density. The following day the transfection was carried out. […] Following this step, the Plus reagent/Optimem premix was added to all DNA samples followed by the Lipofectamine LTX/Optimem premix. The transfection mix was incubated for 5 min at room temperature and then carefully dropped on the cells. Generally, no media change was carried out. Cells were analysed two days following transfection.\n(§1) For flow cytometry, cells were detached, pelleted and resuspended in an appropriate volume of flow cytometry buffer (1% BSA in PBS, v/v). Cells were stained with Draq7 (Abcam, ab109202, f.c. 0.1 μM) as a live/dead stain and analysed using the BD LSRFortessa cell analyser (4 lasers, BD Bioscience)."}, "[2]": {"tested_on": "GSC patient lines E31 and E55", "experiment": "Lentivirus SSE-7-mCherry reporter, flow cytometry in GSC patient lines", "text": "FIG. 14: Exemplary SSE-7 also has good activity when deployed with lentivirus. Flow cytometry quantitation of levels of mCherry reporter in GSCs transduced with lentivirus harbouring SSE-7-mCherry reporters."}, "[3]": {"tested_on": "GSC7 cells", "experiment": "AAV2 transduction: mCherry (flow cytometry) and HSV-TKv5 (western blot) expression in GSC7", "conditions": "AAV2 HSV-TK-v5-P2A-mCherry cassette", "experimental": "as §1, with “Bioscience). Analysis of flow cytometry data was carried out in the FlowJo Analysis software (FlowJo, version 10.6.2).” for “Bioscience).”\n(§2) Cells were scraped in PBS and spun down at […] twice to remove all liquid. Cell pellets were resuspended in 70 μl of RIPA buffer (50 mM Tris-HCl pH 8.0, 150 mM NaCl, 1% NP-40, 0.5% deoxycholate, 0.1% SDS and protease inhibitor (Complete, Roche, 11697498001) and incubated for 5 min on ice. Lysates were centrifuged at 13000 rpm for 10 min at 4° C. (centrifuge 5415D, Eppendorf). And the supernatant was collected in a new tube. Protein extracts were quantified using the Pierce BCA Protein Assay Kit (Thermo Scientific, Cat: 23225) according to the manufacturer's instructions.\n(§3) HEK293 cells are seeded the day before the transfection into a 6 well plates so that on the day of transfection confluence would be at 60-70%. Before HEK293 cells are transfected with PEI a media change is carried out as this media will be conditioned with virus over the for two days. […] Cells are analysed on the microscope or flow cytometry. […]"}, "[4]": {"tested_on": "patient-derived glioblastoma cell lines (GSC7, E17, E21, E28, E31, E34)", "experiment": "SSE-7 activity (% mCherry) across patient-derived glioblastoma cell lines", "text": "FIG. 7: Activity of SSE-7 in a range of GSCs. (A) Schematic of the expression cassette. (B) Experimental outline, (C) Results of % mCherry expression for individual cells across the various cell lines tested. GSC7 was the positive control cell line tested (from which the fragments were initially screened). E17, E28 (previously termed G328), E21, E31, E34 refers to the five additional patient-derived glioblastoma cell lines.\nThe experiment described in Example 8 was repeated in five patient-derived glioblastoma cell lines (E17, E21, E28, E31, E34)."}, "[5]": {"tested_on": "huFb170 fibroblasts", "experiment": "AAV2 transduction: mCherry and HSV-TKv5 expression in huFb170", "conditions": "AAV2 HSV-TK-v5-P2A-mCherry cassette", "experimental": "as §1, with “Bioscience). Analysis of flow cytometry data was carried out in the FlowJo Analysis software (FlowJo, version 10.6.2).” for “Bioscience).”\nas §2, §3"}}}
{"molecule": "B1", "values": [{"measurement": "expression level compared with positive control CMV, flow cytometry", "setting": "[1]", "result": "higher than CMV"}, {"measurement": "fluorescence intensity compared with CMV", "setting": "[1]", "result": "higher intensity than CMV"}, {"measurement": "mCherry reporter expression", "setting": "[2]", "result": "High levels of expression"}, {"measurement": "mCherry and HSV-TKv5 expression", "setting": "[3]", "result": "driving both mCherry and HSV-TKv5 expression"}, {"measurement": "expression", "setting": "[4]; E21, E31 and E34", "result": "lower frequency of expression"}, {"measurement": "expression", "setting": "[4]; GSC7, E17 and E28", "result": "highly expressed and comparable to full-length CMV"}, {"measurement": "activity across cell lines", "setting": "[4]; all lines tested", "result": "active in all cell lines"}, {"measurement": "mCherry and HSV-TKv5 expression", "setting": "[5]", "result": "not in fibroblasts"}]}
